This is an account of results in patent publication US20050031613A1.

The target of assay [1] is soluble hFcγRIIIa(V) (human) (UniProt P08637). As to the kind of experiment: SPR, BIAcore 2000; end of the range tied to this antibody by Table 3 (0.48/0.28).
Assay [2] has the same target. As to the kind of experiment: SPR, BIAcore 2000; shFcγRIIIa captured by anti-His antibody on CM5 chip, antibody in flow (0.625 to 20 µg/ml). For orientation: SPR reads the build-up and loss of mass on a sensor chip optically.
The target in assay [3] is soluble hFcγRIIIa(F) (human) (UniProt P08637). As to the kind of experiment: SPR, BIAcore 2000; shFcγRIIIa captured by anti-His antibody on CM5 chip; KA from the equilibrium value of the binding.

The koff is the rate constant with which the complex falls apart. What is called kon is the rate constant with which the complex forms. Take Rituxan™ (antibody): the fold higher KA for shFcγRIIIa(V) than for shFcγRIIIa(F) in assay [1] lay in the range of 2 to 3 times. Further, in assay [2], the Ka came to 4.8e+06 M⁻¹, the koff was 0.0071 s⁻¹ and the association rate constant (kon) was determined as 34000 M⁻¹ s⁻¹. Besides, in assay [3], the Ka was 2.8e+06 M⁻¹.
